Source: PMC4849473

Experiments:
[1] = target: Chp1CD LOOP1B/2B, SUMO tag removed, fluorescently labelled (for MST) (fission yeast (S. pombe)) (UniProt Q10103); experiment: MST; 300 ng fluorescent Chp1CD (SUMO removed) in 20 μl, H3K9me3Nucleosomes titrated (0 to 2.4 μM); 10 mM Tris-HCl pH 7.5, 150 mM NaCl, 0.5 mM DTT, 0.05% Tween-20, 10% glycerol; cubic fit, Kd interpolated at 50% bound
[2] = test system: His6-SUMO-Chp1CD LOOP1B/2B (Schizosaccharomyces pombe); experiment: MST; conditions: H3KC9me3 methyl-lysine analog; X. laevis H2A, H2B, H3, H4; Nucleosome pull-down: 20 mM HEPES pH 7.5, 100 mM KCl, 0.5 mM DTT, 40 mM imidazole, on ice; complex assembly and RNA pull-down: 20 mM HEPES pH 7.5, 75 mM KCl, 0.

Chain of Chp1CD LOOP1B/2B, SUMO tag removed, fluorescently labelled (for MST) (fission yeast (S. pombe)) (Q10103 15-75 N33A/N35A/W49A/Y50A/D51A): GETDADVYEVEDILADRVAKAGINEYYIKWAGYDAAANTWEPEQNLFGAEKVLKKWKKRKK

| fold reduction in Kd against wild-type Chp1CD [1] | Substance | binding signal (fold reduction in Kd vs wt) [2] |
| --- | --- | --- |
| > 5 fold | H3K9me3 methyl lysine analog (MLA) nucleosome (complex) |  |
|  | H3K9me3 nucleosome (601) | > 5 |
